{"source": "patent US20230212239A1", "about": "“INHIBITORS OF CBL AUTOINHIBITION AND RELATED METHODS” (THE HOSPITAL FOR SICK CHILDREN, priority 2020, published 2023)", "binders": {"B1": {"name": "mouse SLAP2 (residues 28-259) (other, UniProt Q8R4L0 28-259, looked up)", "chain": "QPERHKVTAVALGSFPAGEQARLSLRLGEPLTIISEDGDWWTVQSEVSGREYHMPSVYVAKVAHGWLYEGLSREKAEELLLLPGNPGGAFLIRESQTRRGCYSLSVRLSRPASWDRIRHYRIQRLDNGWLYISPRLTFPSLHALVEHYSELADGICCPLREPCVLQKLGPLPGKDTPPPVTVPTSSLNWKKLDRSLLFLEAPASGEASLLSEGLRESLSSYISLAEDPLDDA", "notes": "range 28-259; Trx-His(6) tag removed with thrombin; In the crystal only residues 237-255 are seen; also called mSLAP2; Trx-His(6)-mSLAP2 (before thrombin cleavage)"}, "B2": {"name": "Trx-His(6)-Δlinker-hSLAP2 L241R (other)", "chain": "EAERSKATAVALGSFPAGGPAELSLRLGEPLTIVSEDGDWWTVLSEVSGREYNIPSVHVAKVSHGWLYEGLSREKAEELLLLPGNPGGAFLIRESQTRRGSYSLSVRLSRPASWDRIRHYRIHCLDNGWLYISPRLTFPSLQALVDHYSELADDICCLLKEPCVLQRAGPLPGKDIPLPVTVQRTPLNWKELDSSLLFSEAATGEESLLSEGRRESLSFYISLNDEAVSLDDA", "notes": "Point mutant within Duet-His-Δlinker-hSLAP2-CBL; not shown: N-terminal thioredoxin (Trx)-His(6)-TEV-site tag and linker of the modified pET32a (Δlinker version)"}, "B3": {"name": "Trx-His(6)-Δlinker-hSLAP2 S244E (other)", "chain": "B2 chain with R213L, S216E", "notes": "as for B2"}, "B4": {"name": "Trx-His(6)-Δlinker-hSLAP2 L245P (other)", "chain": "B2 chain with R213L, L217P", "notes": "Point mutant within Duet-His-Δlinker-hSLAP2-CBL; not shown: N-terminal Trx-His(6)-TEV site fusion of the modified pET32a (Δlinker form)"}}, "key": {"[1]": {"target": "the molecule itself", "assay": "X-ray crystal structure; two SLAP2 helices in the asymmetric unit"}, "CBL (47-357) A223R": {"target": "T1, CBL (47-357) A223R (UniProt P22681 47-357)", "T1 construct": "range 47-357; Point mutant within Duet-His-Δlinker-hSLAP2-CBL; also called A223R (CBL mutant)", "T1 sequence (looked up)": "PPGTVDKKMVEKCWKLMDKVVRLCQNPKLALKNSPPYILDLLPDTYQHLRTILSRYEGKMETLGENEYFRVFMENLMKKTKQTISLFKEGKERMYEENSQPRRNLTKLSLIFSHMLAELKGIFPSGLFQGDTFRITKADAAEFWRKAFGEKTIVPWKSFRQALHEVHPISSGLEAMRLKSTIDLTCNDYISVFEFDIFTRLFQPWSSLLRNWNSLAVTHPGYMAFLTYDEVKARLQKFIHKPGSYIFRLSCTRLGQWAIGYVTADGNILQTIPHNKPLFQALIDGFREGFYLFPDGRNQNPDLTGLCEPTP", "assay": "Ni-NTA co-purification, low salt (0.15 M NaCl), Coomassie SDS-PAGE", "method": "(§1) Cell pellets were resuspended in either high or low salt (as for high salt except 25 mM HEPEs pH 7.5, 150 mM NaCl) lysis buffer and purified as above on Ni-NTA agarose (Qiagen) with wash buffer (25 mM HEPEs pH 7.5, 150 mM NaCl, 2% glycerol, 20 mM imidazole, 10 mM βME). Bead slurry was mixed with SDS 2X loading buffer (125 mM Tris pH 6.8, 4% SDS, 20% glycerol, 0.715 M βME, bromophenol blue), boiled, and analyzed by 10 or 12.5% SDS-PAGE, stained with Coomassie blue."}, "[2]": {"target": "T2, CBL (47-357), co-expressed from pETDuet-1 MCS2 (UniProt P22681 47-357)", "T2 construct": "range 47-357; Untagged partner in the Duet co-purification trials; also called CBL TKBD", "T2 sequence (looked up)": "T1 sequence (looked up) with R177A", "assay": "Ni-NTA co-purification from Duet co-expression, high salt (0.5 M NaCl), Coomassie SDS-PAGE", "method": "as §1"}, "CBL (47-357) S226E": {"target": "T3, CBL (47-357) S226E (UniProt P22681 47-357)", "T3 construct": "range 47-357; Point mutant within Duet-His-Δlinker-hSLAP2-CBL; also called S226E (CBL mutant)", "T3 sequence (looked up)": "T1 sequence (looked up) with R177A, S180E", "assay": "Ni-NTA co-purification, low salt (0.15 M NaCl), Coomassie SDS-PAGE", "method": "as §1"}}, "note": "Residue numbers refer to the chain shown, from its start."}
{"binder": "B1", "values": [{"measurement": "binding result", "setting": "[1]", "value": "binds"}]}
{"binder": "B2", "values": [{"measurement": "binding result", "setting": "CBL (47-357) A223R", "value": "no binding"}, {"measurement": "binding result", "setting": "[2]", "value": "no binding"}]}
{"binder": "B3", "values": [{"measurement": "binding result", "setting": "CBL (47-357) S226E", "value": "no binding"}]}
{"binder": "B4", "values": [{"measurement": "binding result", "setting": "[2]", "value": "no binding"}]}
